This is an account of results in patent EP1960427B1.

Bounds are passed on as bounds.

The target in assay [1] is dimer-IgG (Wright et al.), small immune complex. Nature of the assay: flow cytometry, inhibition of dimer-IgG binding to human neutrophils. (A flow cytometer gives signals particle by particle.)
Assay [2] addresses human IgG monomer (Sandoglobulin, Novartis) (human). The assay is described as follows: BIAcore equilibrium binding, receptor injected over immobilised IgG; single-binding site. On the technique in general: SPR reads the build-up and loss of mass on a sensor chip optically.
Assay [3] has as its target heat-aggregated IgG (HAGG). The assay is described as follows: BIAcore equilibrium binding, receptor injected over immobilised HAGG; single-binding site.
Assay [4] addresses heat-aggregated IgG (HAGG). Nature of the assay: cell-based or functional assay.
In assay [5] the target is immune complexes consisting of ovalbumin and anti-ovalbumin antibody (OVA ICs). Nature of the assay: cell-based or functional assay.
For assay [6], the target named is human IgG monomer (Sandoglobulin, Novartis) (human). Nature of the assay: BIAcore equilibrium binding over immobilised IgG.
For assay [7], the target named is heat-aggregated IgG (HAGG). Nature of the assay: BIAcore equilibrium binding over immobilised HAGG.
In assay [8] the target is heat-aggregated IgG (HAGG). Nature of the assay: flow cytometry, block of HAGG binding to IIA1.6 cells with human FcγRIIb.
Assay [9] addresses heat-aggregated IgG (HAGG). Nature of the assay: BIAcore equilibrium binding over immobilised HAGG; two-binding site model, KD1.
The target in assay [10] is heat-aggregated IgG (HAGG). Nature of the assay: BIAcore equilibrium binding over immobilised HAGG; two-binding site model, KD2.
Assay [11] concerns the target dimer-IgG (Wright et al.), small immune complex. The assay is described as follows: flow cytometry, inhibition of dimer-IgG binding to human neutrophils from two individuals.
For assay [12], the target named is human IgG monomer (Sandoglobulin, Novartis) (human). Nature of the assay: BIAcore equilibrium binding over immobilised human IgG monomer; two-binding site model, KD1.
Assay [13] has the same target. The assay is described as follows: BIAcore equilibrium binding over immobilised human IgG monomer; two-binding site model, KD2.

Broadly, the IC50 is the concentration that inhibits the measured activity by half. The low end stands for higher potency, the high end for lower potency. By Kd is commonly meant the concentration at which binding is half-saturated. Low values mean tighter binding, high ones weaker binding. “recombinant soluble FcγRIIa monomer (rsFcγRIIa monomer), expressed in HEK 293E cells from pBAR426 (from UniProt P12318 34-217) (receptor)”: the IC50 in assay [1] came out at 10.5 µg/mL. In addition, the Kd in [2] is 1700 nM; in assay [3] it was 1050 nM.
In assay [4], “recombinant soluble FcγRIIa head to tail homodimer (rsFcγRIIa dimer), construct of Figure 1 (pBAR397/pBAR427) (from UniProt P12318 34-215; P12318 36-215) (receptor)” came in with an IC50 of HAGG-induced platelet activation (CD41 and CD62P positive platelets) of 3.9 µg/mL. The same substance yielded a fold potency over rsFcγRIIa monomer, HAGG-induced platelet activation in assay [4] of 5 fold. This substance yielded an IC50 of TNF-α release from MC/9 cells induced by OVA ICs in assay [5] of 2.1 µg/mL. Further, the fold potency over rsFcγRIIa monomer, TNF-α release from MC/9 cells in assay [5] is 8 fold. Moreover, the fold greater avidity than the monomeric receptor in assay [6] was found to be 300 fold. This substance had a fold lesser KD1 than the KD of monomeric rsFcγRIIa in assay [7] of 300 fold. For the same substance, the IC50 in assay [1] was 1.1 µg/mL; in [8] it was 0.0039 µg/mL; in assay [11], 0.9 to 1.1 µg/mL. The substance also had a fold more active than rsFcγRIIa monomer in [1] of 10 fold. Moreover, the fold more potent than the monomer protein in assay [8] is more than 500 fold. Besides, the Kd in [9] was determined as 2.73 nM; in [10] it was 99 nM; in [12] it was 3.2 nM; in assay [13] it was 100 nM.
In turn, “rsFcγRIIa monomer (R&D Systems, Cat # 1330-CD/CF) (from UniProt P12318 36-218) (receptor)” displayed an IC50 of HAGG-induced platelet activation (CD41 and CD62P positive platelets) in assay [4] of 20.9 µg/mL. The substance further came in with an IC50 of TNF-α release from MC/9 cells induced by OVA ICs in [5] of 17.7 µg/mL. The substance further registered an IC50 in assay [8] of 2.08 µg/mL.
